± gives the uncertainty stated by the source.

To fix the notation:
B1: POU domain, class 4, transcription factor 3, residues 185 to 256; numbered along this chain, Q15319 (parent)
chain: RELEAFAERFKQRRIKLGVTQADVGAALANLKIPGVGSLSQSTICRFESLTLSHNNMIALKPVLQAWLEEAE

The variants in this series derive from B1. The series can be described thus: abundance fitness (aPCA) (normalised: wild type 0, dead -1); higher = more abundant; growth selection in yeast, the domain comes from the species named. To be noted: Homo sapiens.
In the case of RELEAFAERFKQRRIKLGVTQADVGAASANLKIPGVGSLSQSTICRFESLTLSHNNMIALKPVLQAWLEEAE, the abundance fitness was -0.688 ± 0.12.
Regarding RELEAFAERFKQRRIKLGVTQADVGAALANLKIPGVGSLSQSTICRFESLTLSHNNMIALKPVLQAWLEEAY, the abundance fitness is -0.544 ± 0.054.
RELEAFAERFKQRRIKLGVTQADVGAALANLKIPGVGSLSQSTICRFESLTLSHNNMIALKPVLQAWLEEAF: the abundance fitness was -0.63 ± 0.043.
For RELEAFAERFKQRRIKLGVTQADVGAALLNLKIPGVGSLSQSTICRFESLTLSHNNMIALKPVLQAWLEEAE the value was -0.21 ± 0.059; for RELEAFAERFKQRRIKLGVTQADVGAALDNLKIPGVGSLSQSTICRFESLTLSHNNMIALKPVLQAWLEEAE, -0.25 ± 0.12; for RELEAFAERFKQRRIKLGVTQADVGAALANLKTPGVGSLSQSTICRFESLTLSHNNMIALKPVLQAWLEEAE, -0.197 ± 0.14.
On to RELEAFAERFKQRRIKLGVTQADVGAALANLKIPGVGSLSQSTICRFESLTLSHNNMIALKPVLQPWLEEAE, for which the abundance fitness was -0.65 ± 0.14.
For RELEAFAERFKQRRIKLGVTQADVGAALANLKIPGVGSLRQSTICRFESLTLSHNNMIALKPVLQAWLEEAE the value was -0.175 ± 0.069; for RELEAFAERFKQRRIKLGVTQADVGAALANMKIPGVGSLSQSTICRFESLTLSHNNMIALKPVLQAWLEEAE, -0.284 ± 0.18; for RELEAFAERFKQRRIKLGVTQADVGAALANLKIPGVGSLSQSTICRFESLTLSHNNMIALKPVLQAWLIEAE, -0.106 ± 0.059.
For the variant RELEAFAERFKQRRIKLGVTQADVGAALANLKIPGVGSLSQSTICRFESLTLSHNNMIALKPVLQAWLNEAE, the abundance fitness was -0.06 ± 0.11.
The same measure for RELEAFAERFKQRRIKLGVTQADVGAWLANLKIPGVGSLSQSTICRFESLTLSHNNMIALKPVLQAWLEEAE: -0.202 ± 0.059.
For RELEAFAERFKQRRIKLGVTQADVGAYLANLKIPGVGSLSQSTICRFESLTLSHNNMIALKPVLQAWLEEAE the value was -0.084 ± 0.088; for RELEAFAERFKQRRIKLGVTQADVGAELANLKIPGVGSLSQSTICRFESLTLSHNNMIALKPVLQAWLEEAE, -0.123 ± 0.081; for RELEAFAERFKQRRIKLGVTQADVGAALANLDIPGVGSLSQSTICRFESLTLSHNNMIALKPVLQAWLEEAE, -0.076 ± 0.048.
For RELEAFAERFKQRRIKLGVTQADFGAALANLKIPGVGSLSQSTICRFESLTLSHNNMIALKPVLQAWLEEAE the value was -0.709 ± 0.036; for RELEAFAERFKQRRIKLGVTQNDVGAALANLKIPGVGSLSQSTICRFESLTLSHNNMIALKPVLQAWLEEAE, -0.02 ± 0.074; for RELEAFAERFKQRRIKLGVTQSDVGAALANLKIPGVGSLSQSTICRFESLTLSHNNMIALKPVLQAWLEEAE, -0.064 ± 0.035.
Regarding RELEAFAERFKQRRIKLGVTQWDVGAALANLKIPGVGSLSQSTICRFESLTLSHNNMIALKPVLQAWLEEAE, the abundance fitness is -0.329 ± 0.064.
For RELEFFAERFKQRRIKLGVTQADVGAALANLKIPGVGSLSQSTICRFESLTLSHNNMIALKPVLQAWLEEAE the value was -0.605 ± 0.21; for RELEAFAERFKQRRIKLGVTQADVGAALANLKIPGVGSLSQSTIWRFESLTLSHNNMIALKPVLQAWLEEAE, -0.234 ± 0.32.
The same measure for RELEAFAERFKQRRVKLGVTQADVGAALANLKIPGVGSLSQSTICRFESLTLSHNNMIALKPVLQAWLEEAE: -0.098 ± 0.055.
For the variant RELEAFAERFKQRRIKLGVTQADVGAALANLKIPGVGSLSQSTICRFESLTLSHNNMFALKPVLQAWLEEAE, the abundance fitness was determined as 0.078 ± 0.14.
The same measure for RELEAFAERFKQFRIKLGVTQADVGAALANLKIPGVGSLSQSTICRFESLTLSHNNMIALKPVLQAWLEEAE: -0.247 ± 0.055.
In the case of RELEAFAERFKQHRIKLGVTQADVGAALANLKIPGVGSLSQSTICRFESLTLSHNNMIALKPVLQAWLEEAE, the abundance fitness was determined as 0.151 ± 0.13.
For RELEAFAERFKQLRIKLGVTQADVGAALANLKIPGVGSLSQSTICRFESLTLSHNNMIALKPVLQAWLEEAE the value was -0.139 ± 0.037; for RELEAFAERFKQDRIKLGVTQADVGAALANLKIPGVGSLSQSTICRFESLTLSHNNMIALKPVLQAWLEEAE, -0.234 ± 0.12.
The same measure for RELEAFYERFKQRRIKLGVTQADVGAALANLKIPGVGSLSQSTICRFESLTLSHNNMIALKPVLQAWLEEAE: -0.725 ± 0.18; for RELEAFNERFKQRRIKLGVTQADVGAALANLKIPGVGSLSQSTICRFESLTLSHNNMIALKPVLQAWLEEAE: -0.927 ± 0.27; for RELEAFCERFKQRRIKLGVTQADVGAALANLKIPGVGSLSQSTICRFESLTLSHNNMIALKPVLQAWLEEAE: -0.124 ± 0.055.
The same measure for RELEAFQERFKQRRIKLGVTQADVGAALANLKIPGVGSLSQSTICRFESLTLSHNNMIALKPVLQAWLEEAE: -0.689 ± 0.061.
On to RELEAFAERFKQRRIKVGVTQADVGAALANLKIPGVGSLSQSTICRFESLTLSHNNMIALKPVLQAWLEEAE, for which the abundance fitness was -0.682 ± 0.21.
The same measure for REKEAFAERFKQRRIKLGVTQADVGAALANLKIPGVGSLSQSTICRFESLTLSHNNMIALKPVLQAWLEEAE: -0.482 ± 0.083; for RELEAFAERFKQRRIKLGVTQADVGAALANLKIPGVGSLSQSGICRFESLTLSHNNMIALKPVLQAWLEEAE: -0.65 ± 0.088; for RELEAFAERFKQRRIKLGVTQADVGAALANLKIPGVGSLSQSNICRFESLTLSHNNMIALKPVLQAWLEEAE: -0.746 ± 0.21.
For RELEAFAERFKQRRIKLGVTQADVGAALANLKIPGVGSLSQSRICRFESLTLSHNNMIALKPVLQAWLEEAE the value was -0.607 ± 0.11; for RELEAFAERFKQRRIKLGVTQADVGAALANLKIPGVGSLSQSTICRQESLTLSHNNMIALKPVLQAWLEEAE, -0.875 ± 0.13.

Source of the values: the Human Domainome abundance scans (Beltran et al. 2025).
